The values below come from publication PMC11655445.

What all share (details): glycan lost; control: WT PTTG1IP-GFP
The nature of data set [1]: anti-GFP Western blot of cell lysates.
The nature of data set [2]: anti-GFP Western blot of isolated EVs.
Data set [3] in a line: median fluorescence intensity of GFP+ EVs.
Data set [4] can be described thus: single-vesicle analysis, GFP+ EVs in conditioned media.

B1: PTTG1IP (pituitary tumor-transforming gene 1 protein-interacting protein): 2NQ (protein)
parent chain: MAPGVARGPTPYWRLRLGGAALLLLLIPVAAAQEPPGAACSQNTNKTCEECLKNVSCLWCNTNKACLDYPVTSVLPPASLCKLSSARWGVCWVNFEALIITMSVVGGTLLLGIAICCCCCCRRKRSRKPDRSEEKAMREREERRIRQEERRAEMKTRHDEIRKKYGLFKEENPYARFENN
Regarding B1, the expression_or_secretion entry in data set [1] is listed as “no change”. In addition, the localisation_or_trafficking result in data set [2] was “decreases”. Besides, in data set [3], the localisation or trafficking, percent of wt was 48%. In data set [4], the “localisation_or_trafficking, other: % GFP+ vesicles” value was “decreases, 27.2 vs 84”.

B2: PTTG1IP (pituitary tumor-transforming gene 1 protein-interacting protein): N45Q (protein)
parent chain: B1 parent chain
As for B2, in data set [1], the expression_or_secretion entry is on record as “no change”. In addition, the “localisation_or_trafficking, other: % GFP+ vesicles” value in data set [4] is “decreases, 43.6 vs 84”.

B3: PTTG1IP (pituitary tumor-transforming gene 1 protein-interacting protein): N54Q (protein)
parent chain: B1 parent chain
As to B3, the expression_or_secretion entry in data set [1] was “no change”. For the same protein, in data set [4], the “localisation_or_trafficking, other: % GFP+ vesicles” value is listed as “decreases, 45.7 vs 84”.
